We go through 1 molecule from patent US12251370B2, “Small molecule inhibitors of the BfrB:Bfd interaction” (BOARD OF SUPERVISORS OF LOUISIANA STATE UNIVERSITY AND …, priority 2018, dated 2025).

Where “and” joins values, the source holds several entries; their conditions need not be identical. Identical values can stand only once. Like-named read-outs stand apart in the source and are kept apart here.

The target in test [1] is T1, BfrB (Pseudomonas aeruginosa, UniProt Q9HY79). Put plainly: Bfd association with BfrB in solution. Format: binding. The note with it: apo-BfrB; read-out: Kd, interaction between Bfd and apo-BfrB.
The target of test [2] is T1, BfrB. The following applies: holo-BfrB; previously reported; read-out: Kd, interaction between Bfd and BfrB (holo); cited from earlier work.

T1 sequence (Q9HY79 whole entry): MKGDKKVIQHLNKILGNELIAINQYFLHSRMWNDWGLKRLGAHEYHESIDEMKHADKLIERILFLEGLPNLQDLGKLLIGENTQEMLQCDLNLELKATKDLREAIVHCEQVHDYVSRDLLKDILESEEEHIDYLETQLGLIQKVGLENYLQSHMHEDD

B1: Bfd: bacterioferritin-associated ferredoxin, cognate partner of the iron storage protein BfrB (protein, UniProt Q9HY80 1-73, looked up)
Bacterioferritin-associated …: MYVCLCQGVTDNQIRDAIYEGCCSYREVREATGVGTQCGKCACLAKQVVRETLNDLQSAQPVPAFGTTAFVAA
In general, Kd refers to the free concentration of one partner at which half of the binding sites on the other are occupied at equilibrium, for simple one-to-one binding. In the case of B1, the equilibrium dissociation constant (Kd) was 3.1 µM in test [1]; 3.4 µM and 3 µM and ~3 µM in test [2].
